The values below come from patent US20110293610A1 (published 2011).

The target in assay [1] is T1, HIS-tagged B Lymphocyte Stimulator (human, UniProt Q9Y275 71-285).
T1 construct: Expressed in E. coli from pQE9 and purified; also called histidine-tagged B Lymphocyte Stimulator; HIS-B Lymphocyte Stimulator; not shown: histidine tag of the pQE9 vector
Nature of the assay: BIAcore, periplasmic scFv on high density HIS-BLyS surface. The method, then:
All BIAcore analysis was performed on BIAcore 2000 machines, using the BIAcore 2000 control software and evaluated using the BIAevaluation 3.0 software. A high density His-tagged B Lymphocyte Stimulator surface (>1000 RU HIS-B Lymphocyte Stimulator coupled) was prepared in flow cell 2 by amine coupling to a CM5 chip. A new CM5 chip was inserted into the BIAcore and a sensorgram started over flow cell 2 with HBS buffer at a flow rate of 5 μl/min. The NHS and EDC solution were mixed 1:1 before injecting 30 μl over the CM5 surface. Fifty μl HIS-B Lymphocyte Stimulator (at 10 μg/ml in Sodium acetate buffer, pH4) was injected and allowed to couple to the surface. Thirty μl of ethanolamine-HCl solution was then injected to block free NHS esters. Prior to using the chip, 10 μl of 4M Guanidine hydrochloride in HBS was injected over the surface to strip the surface of non-covalently bound B Lymphocyte Stimulator. A blank surface (no HIS-B Lymphocyte Stimulator) was also prepared over flow cell 1 so that non-specific binding effects can be subtracted from the HIS-B Lymphocyte Stimulator binding curves.
The 96-well plate containing periplasmic scFvs was secured inside the BIAcore. Two ml of 4M Guanidine hydrochloride in HBS was placed in a rack inside the BIAcore for regeneration of the HIS-B Lymphocyte Stimulator surface between samples. The sensorgram was run over flow cells 1 and 2 at a flow rate of […].

In another assay the target is T2, APRIL, soluble form (Homo sapiens (Human), UniProt O75888 105-250).
T2 sequence: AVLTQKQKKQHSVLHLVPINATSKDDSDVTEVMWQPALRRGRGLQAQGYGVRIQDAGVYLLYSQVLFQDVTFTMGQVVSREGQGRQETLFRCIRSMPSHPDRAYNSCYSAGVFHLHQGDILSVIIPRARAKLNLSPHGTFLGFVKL
Nature of the assay: phage display panning on soluble APRIL, rounds two and three. The source says: (§1) In a specific embodiment, antibodies of the present invention cross react with APRIL (SEQ ID NO:3239; GenBank Accession No. AF046888; J. Exp. Med. 188(6):1185-1190; PCT International Publication WO97/33902). […] These scFvs were isolated by panning a phage scFv library comprising VH and VL domains obtained from human bone marrow B cells (BM library). Phage from the BM phage library were first selected for binding to soluble B Lymphocyte Stimulator (amino acids 134-285 of SEQ ID NO:3228). A second round of selection for binding to the soluble form of APRIL (amino acids 105-250 of SEQ ID NO:3239) was then performed on the B Lymphocyte Stimulator binding phage selected in round one. A third round of selection for binding to the soluble form of APRIL (amino acids 105-250 of SEQ ID NO:3239) was then performed on the phage selected in round two. A final (fourth) round of selection for binding to the soluble form of B Lymphocyte Stimulator (amino acids 134-285 of SEQ ID NO:3228) was then performed on the phage selected in round three. Phage clones that bound B Lymphocyte Stimulator in the fourth round of selection were eluted with either 0.1M triethylamine (TEA) or with a TACI-Fc fusion protein (e.g., the extracellular domain of TACI (amino acids 31 to 159 of Genbank Accession No. AAC51790) fused to Fc).

For assay [2], the target named is T3, B Lymphocyte Stimulator, soluble form (human) (human, UniProt Q9Y275 134-285, biotinylated with NHS-biotin where used as biotinylated B Lymphocyte Stimulator).
T3 construct: Coated on plastic, captured on streptavidin plates, amine-coupled to a CM5 chip or free in solution, depending on the assay; also called BLyS; immobilized B Lymphocyte Stimulator
Nature of the assay: phage display panning on soluble BLyS.
Text: as §1

B1: I080A08 (scFv)
scFv: QVTLKESGGDLVQPGGSLRLSCAASGLTFMSYAMTWVRQAPGKGLEWVSSISGSGDNTYYGDSVRGRFTISRDNSKNTLFLQLNSLRAEDTAFYYCAKVHSTGYAFENWGRGTLVTVSSGGGGSGGGGSGGGGSAQSVLTQPPSVSGAPGQRVTISCTGSSSNIGAGYNVHWYQQLPGTAPRLLISSNTNRPSGVPDRFSGSKSGTSASLAITGLQAEDEADYYCQSYDSSLSGFVFGTGTKVTVLG
As for B1, in assay [1], the binding result is “binds”.

B2: I082G01 (scFv)
scFv: QMQLVQSGAEVKKPGASVKVSCKASGYTFTSYYMHWVRQAPGQGLEWMGLVHPNDGSVNYAQKFKGRVTMTRDTSTSTVYMELSSLRSDDTAVYYCARDRGSGWPNWYFDLWGQGTLVTVSSGGGGSGGGGSGGGGSDIQMTQSPSTLSASIGDRVTITCRASEGIYHWLAWYQQKPGKAPKLLIYKASSLASGAPSRFSGSGSGTDFTLTISSLQPDDFATYYCQQYSNYPLTFGGGTKLEIKH
Take B2: in assay [1], the binding result is given as “binds”.

B3: BAB2019 (scFv)
scFv: EVQLVQSGAEVKKPGASVKVSCKASGYTFTSSGISWVRQAPGQGLEWMGWINGYNGNTKYAQKFQGRVTMTTDTSTTTAYMELRSLRSDDTAVYYCARDSYDILTDYYNMIMDVWGQGTLVTVSSGGGGSGGGGSGGGGSQSVLTQPASVSGSPGQSITISCTGTSSDVGGYNYVSWYQQHPGKAPKLMIYEGSKRPSGVSNRFSGSKSGNTASLTISGLQAEDEADYYCSSYTTRSTRVFGGGTKLTVLG
Turning to B3, the binding result with APRIL, soluble form is “binds”; in assay [2] it was “binds”.

B4: I084C11 (scFv)
scFv: GVQLEESGAEVKKPGASVKVSCKASGYTFTGYYMHWVRQAPGQGLEWMGWINPNSGGTNYAQKFQGRVTMTRDTSISTAYMELSRLRSDDTAVYYCARGNAWGAFDIWGRSTLVTVSSGGGGSGGGGSGGGGSQSVLTQPASVSGSPGQSITISCTGTSSDVGGYNYVSWYQQHPGKAPKLMIYEGSKRPSGVSNRFSGSKSGNTASLTVSGLQAEDEADYYCSSYTTRSTRVFGGGTKLTVLG
With B4, in assay [1], the binding result was “binds”.

B5: I080E05 (scFv)
scFv: EVQLVQSGAAVKKPGASVKVSCKASGYTFTTYYIHWVRQAPGQGLEWMGIINPVNGNTIYAQKFQGRVTMTRDTSTGTVNMELSSLRSEDTAVFYCVREGGGDAYDVAPYYFDYWGQGTLVTVSSGGGGSGGGGSGGGGSAQAVLTQPSSVSGAPGQRVTISCTGSSSNIGDGYDVHWYQQLPGTAPKLLIYGNSHRPSGVPDRFSGSKSDTSASLAITGLQVEDEADYFCHSYDSSVSGWIFGGGTKLTVLG
Take B5: in assay [1], the binding result was “binds”.

B6: BAB2015 (scFv)
scFv: QVQLVQSGAEVKKPGSSVKVSCKASGGTLGNYGISWVRQAPGQGLEWMGAIIPNFGTTNYVQKFQGRVTMTTDTSTSTAYMELRSLRSDDTAVYYCARGASSGWYDYYYYMDVWGKGTMVTVSSGGGGSGGGGSGGGGSDIQMTQSPSTLSASIGDRVTITCRASEGIYHWLAWYQQKPGKAPKLLIYKASSLASGAPSRFSGSGSGTDFTLTISSLQPDDFATYYCQQYSNYPLTFGGGTKLEIRR
Consider B6, for which the binding result is on record as “binds” with APRIL, soluble form and “binds” in assay [2].

B7: I084A01 (scFv)
scFv: QVQLVQSGGGLVQPGGSLRLSCAASGFTFSSYEMNWVRQAPGKGLEWVSYISSSGSTTYYADSVKGRFTISRDNAKNSLYLQMNSLRAEDTAVYYCARDTTDYWGQGTMVTVSSGGGGSGGGGSGGGGSQSVLTQPPSASGTPGQRVTISCSGSSSNIGSNTVNWYQRLPGAAPQLLIYNNDQRPSGIPDRFSGSKSGTSGSLVISGLQSEDEADYYCASWDDSLNGRVFGGGTKLTVLG
Take B7: the binding result in assay [1] is on record as “binds”.

B8: I082B08 (scFv)
scFv: QVQLVQSGAEVKKPGGSVKVSCKASAYTFTRYYMHWVRQAPGQGLEWMGIINPSGGRTSYAQKFQGRVTMTRDTSTSTVYMELSSLRSEDTAVYYCARDLGIAGTIYFDYWGKGTLVTVSSGGGGSGGGGSGGGGSQSVLTQPPSVSAAPGQKVTISCSGSTSNIGNNYVSWYQQHPGKAPKLMIYDVSKRPSGVPDRFSGSKSGNSASLDISGLQSEDEADYYCAAWDDSLSEFLFGTGTKLTVLG
For B8, in assay [1], the binding result is on record as “binds”.

B9: I084C04 (scFv)
scFv: VQLVQSGAEVKKPGASVKVSCKASGYTFTSYGISWVRQAPGQGLEWMGWINPNSGGTNYAQKFQGRVTMTRDTSISTAYMELSRLRSDDTAVYYCARNLWGLDYWGKGTMVTVSSGGGGSGGGGSGGGGSSELTQDPAVSVALGQTVRITCQGDSLRSYYASWYQQKPGQAPVLVIYGKNNRPSGIPDRFSGSSSGNTASLTITGAQAEDEADYYCNSRDSSGNHVVFGGGTKLTVLG
As for B9, the binding result in assay [1] was “binds”.

B10: I084B02 (scFv)
scFv: QVQLVQSGGGLVQPGGSLRLSCAASGFTFSSYEMNWVRQAPGKGLEWVSYISSSGSTTYYADSVKGRFTISRDNAKNSLYLQMNSLRAEDTAVYYCARDTTDYWGQGTLVTVSSGGGGSGGGGSGGGGSDIVMTQSPSTLSASVGDRVTITCRASQGISSWLAWYQQKPGRAPKVLIYKASTLESGVPSRFSGSGSGTDFTLTISSLQPEDFATYYCQQSYSTPWTFGQGTKLEIKR
Consider B10, for which the binding result in assay [1] was “binds”.

B11: BAB2080 (scFv)
scFv: KVQLVQSGGGLVKPGGSLRLSCAASGFTFSNYGMHWVRQAPGKGLEWVALISYDGSNKYYADSVKGRFTISRDNSKNTLYLQMNSLRAEDTAVYYCAKLNSLRGGHDYWGRGTLVTVSSGGGGSGGGGSGGGGSQSVLTQPPSVSAAPGQKVTISCSGSTSNIGNNYVSWYQQHPGKAPKLMIYDVSKRPSGVPDRFSGSKSSNSASLDISGLQSEDEADYYCAAWDDSLSEFLFGTGTKLTVLG
In the case of B11, the binding result is on record as “binds” with APRIL, soluble form and “binds” in assay [2].

B12: BAB2001 (scFv)
scFv: GVQLVQSGAEVRKPGASVKVSCKPSGYPFSGNYIHWVRQAPGQGPEWMGWINPNSGDTKYSQKFQGWVTMTRDTSVSTVYMELNRLKSDDTAIYYCAREQYDTLTGSPYGMDVWGKGTLVTVSSGGGGSGGGGSGGGGSDIQMTQSPSTLSASIGDRVTITCRASQGINNYLAWYQQKPGRAPKLLIYAASSLQSGVPSRFSGSGSGTDFTLTISSLQPEDFATYYCLQDSDYPLTFGGGTKLEIKR
As for B12, the binding result is “binds” with APRIL, soluble form and “binds” in assay [2].

B13: I083B12 (scFv)
scFv: QVQLVQSGAEVKKPGASVKVSCKASEYTFYNHYMHWVRQAPGQGLEWMGFINPSGDAAWYAQKFQGRVTLTRDTSTRTVYMELSGLTSEDTAVYYCARESGAGGYYYDDYWGKGTLVTVSSGGGGSGGGGSGGGGSALSYVLTQPPSVSVAPGKTASIPCGGNNIGSKSVQWYLQKAGQAPILVVYDDSDRPSGIPERFSGSNSGNTATLTITRVEAGDEADYYCQVWDSSSDHWFFGGGTKLTVLG
Regarding B13, the binding result in assay [1] is listed as “binds”.

B14: I082A05 (scFv)
scFv: QVQLQQSGGGVVQPGRSLRLSCAASGFTYSSYAMHWVRQAPGKGLEWVAVISYDGSIKYYADSVKGRFTISRDNSKNTLYLQMNSLRAEDTAVYYCARDLDFDYWGKGTLVTVSSGGGGSGGGGSGGGGSQSVLTQPPSVSAAPGQKVTISCSGSTSNIGNNYVSWYQQHPGKAPKFMIYDVSKRPSGVSNRFSGSKSGNTASLTISGVQAEDEADYYCSSYTSASTVIFGGGTKLTVLG
In the case of B14, the binding result in assay [1] is recorded as “binds”.
